Here are results for one substance from patent US20210063414A1, “METHODS FOR PREVENTING AND/OR TREATING BONE LOSS CONDITIONS BY MODULATING IRISIN” (Dana-Farber Cancer Institute, Inc., priority 2018, published 2021).

Holding throughout (experiment): Crosslinking/co-immunoprecipitation/mass spectrometry (TMT quantitative proteomics) to identify irisin receptors
Common to all, as to assay type: binding

For assay [1], the target named is T1, MLO-Y4 cell surface proteins (Mus musculus, UniProt P62960).
T1 construct: endogenous in cells; host or cells: MLO-Y4
Conditions: co-precipitated protein Ybx1 (YBOX1_MOUSE). In outline: (§1)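 Relative protein abundance came from 6-plex TMT MS3 quantitation on an Orbitrap Fusion Lumos, after in-gel trypsin digestion of Coomassie-stained SDS-PAGE lanes. Input was a Ni-NTA pulldown (250 mM imidazole elution) of lysates from murine MLO-Y4 cells. These cells were treated on ice with His-tagged irisin or adipsin (10 nM, 20 min) in serum-free medium, then crosslinked with 1.5 mM DTSSP for 30 min.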

Assay [2] has as its target T2, MLO-Y4 cell surface proteins (Mus musculus, UniProt Q8R1J9).
T2 construct: endogenous in cells; host or cells: MLO-Y4
Particulars: co-precipitated protein Tor2a (TOR2A_MOUSE). In outline:
as §1

Assay [3] concerns the target T3, MLO-Y4 cell surface proteins (Mus musculus, UniProt Q99LC5).
T3 construct: endogenous in cells; host or cells: MLO-Y4
T3 sequence (Q99LC5 20-333): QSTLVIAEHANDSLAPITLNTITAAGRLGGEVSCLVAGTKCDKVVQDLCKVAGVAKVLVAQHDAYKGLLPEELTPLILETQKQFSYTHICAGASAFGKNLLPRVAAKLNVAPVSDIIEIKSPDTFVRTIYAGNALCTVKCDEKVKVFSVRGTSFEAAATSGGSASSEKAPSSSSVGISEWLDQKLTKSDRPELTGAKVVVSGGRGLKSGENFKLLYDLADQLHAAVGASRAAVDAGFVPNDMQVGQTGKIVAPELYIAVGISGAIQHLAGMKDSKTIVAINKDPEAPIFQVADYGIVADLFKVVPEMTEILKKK
Conditions: co-precipitated protein Etfa (ETFA_MOUSE). Put shortly:
as §1

Assay [4] concerns the target T4, MLO-Y4 cell surface proteins (Mus musculus, UniProt Q9CYR0).
T4 construct: endogenous in cells; host or cells: MLO-Y4
T4 sequence (Q9CYR0 17-152): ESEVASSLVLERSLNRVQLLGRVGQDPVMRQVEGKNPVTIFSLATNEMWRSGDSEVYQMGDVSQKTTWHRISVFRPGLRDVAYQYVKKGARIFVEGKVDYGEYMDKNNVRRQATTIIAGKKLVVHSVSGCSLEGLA
Conditions: co-precipitated protein Ssbp1 (SSBP_MOUSE). Put shortly:
as §1

In assay [5] the target is T5, MLO-Y4 cell surface proteins (Mus musculus, UniProt Q9D051).
T5 construct: endogenous in cells; host or cells: MLO-Y4
T5 sequence (Q9D051 31-359): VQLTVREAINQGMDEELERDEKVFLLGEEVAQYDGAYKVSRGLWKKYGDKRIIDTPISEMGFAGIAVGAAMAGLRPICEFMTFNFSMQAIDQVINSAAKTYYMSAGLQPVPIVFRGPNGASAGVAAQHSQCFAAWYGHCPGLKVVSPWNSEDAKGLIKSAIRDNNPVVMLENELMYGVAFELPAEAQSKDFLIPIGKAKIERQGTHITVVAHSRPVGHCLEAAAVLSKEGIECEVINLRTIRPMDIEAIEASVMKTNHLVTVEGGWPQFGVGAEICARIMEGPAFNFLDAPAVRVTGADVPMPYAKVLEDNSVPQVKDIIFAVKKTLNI
Particulars: co-precipitated protein Pdhb (ODPB_MOUSE). Put shortly:
as §1

T2 sequence (Q8R1J9 27-321): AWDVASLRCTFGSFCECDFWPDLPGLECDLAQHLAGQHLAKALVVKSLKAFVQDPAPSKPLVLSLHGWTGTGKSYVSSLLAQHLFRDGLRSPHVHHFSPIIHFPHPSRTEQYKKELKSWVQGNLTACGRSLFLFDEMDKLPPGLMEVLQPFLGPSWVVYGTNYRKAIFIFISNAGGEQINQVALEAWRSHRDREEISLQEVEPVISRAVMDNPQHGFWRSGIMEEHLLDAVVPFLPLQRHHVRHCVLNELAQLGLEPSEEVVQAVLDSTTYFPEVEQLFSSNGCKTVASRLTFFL
T1 sequence (P62960 whole entry): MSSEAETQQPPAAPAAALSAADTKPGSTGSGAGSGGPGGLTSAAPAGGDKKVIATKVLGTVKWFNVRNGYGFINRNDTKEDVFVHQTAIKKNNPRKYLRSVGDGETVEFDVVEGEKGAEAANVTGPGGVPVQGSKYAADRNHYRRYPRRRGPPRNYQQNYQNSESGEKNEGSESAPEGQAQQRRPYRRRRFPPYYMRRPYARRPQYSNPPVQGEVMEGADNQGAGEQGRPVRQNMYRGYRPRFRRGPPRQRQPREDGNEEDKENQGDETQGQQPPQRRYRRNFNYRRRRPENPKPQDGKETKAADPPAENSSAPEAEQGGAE

As for adipsin, the TMT signal-to-noise ratio in assay [1] is 219.172; in assay [2] it was 696.28; in assay [3], 80.1458; in assay [4], 432.759; in assay [5] it was 365.712.
